The record followed here is article PMC4299599, “Quantification of cytosolic interactions identifies Ede1 oligomers as key organizers of endocytosis” (Molecular Systems Biology, 2014).

Conditions in all cases: partners not purified
One test deals with T1, Bbc1 (S. cerevisiae, UniProt P47068 1-1157).
T1 construct: Bbc1, S. cerevisiae; also called Bbc1-3myeGFP; Bbc1-3mCherry; source: chromosomally tagged at the endogenous locus, in the cytoplasm of living S. cerevisiae cells
T1 sequence (looked up): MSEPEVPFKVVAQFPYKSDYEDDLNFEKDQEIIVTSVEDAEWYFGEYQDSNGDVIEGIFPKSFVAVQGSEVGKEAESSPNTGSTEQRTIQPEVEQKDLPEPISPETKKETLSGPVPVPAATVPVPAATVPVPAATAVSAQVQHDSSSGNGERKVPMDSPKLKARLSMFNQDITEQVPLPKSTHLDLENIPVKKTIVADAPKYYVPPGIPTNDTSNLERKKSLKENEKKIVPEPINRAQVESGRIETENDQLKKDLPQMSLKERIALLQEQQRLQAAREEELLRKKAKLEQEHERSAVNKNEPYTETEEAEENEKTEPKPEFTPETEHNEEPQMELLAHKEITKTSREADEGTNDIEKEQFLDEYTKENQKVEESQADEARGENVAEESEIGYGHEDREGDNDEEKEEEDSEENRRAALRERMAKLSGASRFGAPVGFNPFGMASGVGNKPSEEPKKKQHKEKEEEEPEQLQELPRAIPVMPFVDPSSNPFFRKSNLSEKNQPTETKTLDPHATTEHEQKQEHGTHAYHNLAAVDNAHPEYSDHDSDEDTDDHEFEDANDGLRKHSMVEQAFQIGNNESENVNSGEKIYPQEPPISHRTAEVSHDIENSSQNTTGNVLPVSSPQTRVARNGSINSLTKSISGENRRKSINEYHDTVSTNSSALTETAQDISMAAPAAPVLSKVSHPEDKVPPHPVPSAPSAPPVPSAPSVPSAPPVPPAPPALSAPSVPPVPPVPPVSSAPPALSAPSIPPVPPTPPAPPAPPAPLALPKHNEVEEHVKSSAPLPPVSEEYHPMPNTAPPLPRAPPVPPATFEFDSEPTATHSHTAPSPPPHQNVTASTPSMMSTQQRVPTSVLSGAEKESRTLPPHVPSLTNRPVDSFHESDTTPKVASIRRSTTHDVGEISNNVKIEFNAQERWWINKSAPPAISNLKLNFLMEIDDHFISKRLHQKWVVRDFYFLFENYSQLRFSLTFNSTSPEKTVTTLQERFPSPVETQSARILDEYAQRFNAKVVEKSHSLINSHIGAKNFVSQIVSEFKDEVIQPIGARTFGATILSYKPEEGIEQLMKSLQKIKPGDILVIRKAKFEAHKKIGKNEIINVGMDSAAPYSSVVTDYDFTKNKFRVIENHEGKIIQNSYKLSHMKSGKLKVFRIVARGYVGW
Briefly: fluorescence cross-correlation spectroscopy (FCCS); in the cytoplasm of living yeast cells; first-named protein green (3myeGFP or 1myeGFP; eGFP for Don1), second red (3mCherry); self-interaction in diploid strains with one allele of each colour; apparent or effective KD (Kdeff) from single-cell measurements; only Kdeff values < 1000 nM are shown; values for self-interactions are upper limits.

Another test concerns the target T2, Sla1 (S. cerevisiae, UniProt P32790 1-1244).
T2 construct: Sla1, S. cerevisiae; also called Sla1-3myeGFP; Sla1-3mCherry; source: chromosomally tagged at the endogenous locus, in the cytoplasm of living S. cerevisiae cells
T2 sequence (looked up): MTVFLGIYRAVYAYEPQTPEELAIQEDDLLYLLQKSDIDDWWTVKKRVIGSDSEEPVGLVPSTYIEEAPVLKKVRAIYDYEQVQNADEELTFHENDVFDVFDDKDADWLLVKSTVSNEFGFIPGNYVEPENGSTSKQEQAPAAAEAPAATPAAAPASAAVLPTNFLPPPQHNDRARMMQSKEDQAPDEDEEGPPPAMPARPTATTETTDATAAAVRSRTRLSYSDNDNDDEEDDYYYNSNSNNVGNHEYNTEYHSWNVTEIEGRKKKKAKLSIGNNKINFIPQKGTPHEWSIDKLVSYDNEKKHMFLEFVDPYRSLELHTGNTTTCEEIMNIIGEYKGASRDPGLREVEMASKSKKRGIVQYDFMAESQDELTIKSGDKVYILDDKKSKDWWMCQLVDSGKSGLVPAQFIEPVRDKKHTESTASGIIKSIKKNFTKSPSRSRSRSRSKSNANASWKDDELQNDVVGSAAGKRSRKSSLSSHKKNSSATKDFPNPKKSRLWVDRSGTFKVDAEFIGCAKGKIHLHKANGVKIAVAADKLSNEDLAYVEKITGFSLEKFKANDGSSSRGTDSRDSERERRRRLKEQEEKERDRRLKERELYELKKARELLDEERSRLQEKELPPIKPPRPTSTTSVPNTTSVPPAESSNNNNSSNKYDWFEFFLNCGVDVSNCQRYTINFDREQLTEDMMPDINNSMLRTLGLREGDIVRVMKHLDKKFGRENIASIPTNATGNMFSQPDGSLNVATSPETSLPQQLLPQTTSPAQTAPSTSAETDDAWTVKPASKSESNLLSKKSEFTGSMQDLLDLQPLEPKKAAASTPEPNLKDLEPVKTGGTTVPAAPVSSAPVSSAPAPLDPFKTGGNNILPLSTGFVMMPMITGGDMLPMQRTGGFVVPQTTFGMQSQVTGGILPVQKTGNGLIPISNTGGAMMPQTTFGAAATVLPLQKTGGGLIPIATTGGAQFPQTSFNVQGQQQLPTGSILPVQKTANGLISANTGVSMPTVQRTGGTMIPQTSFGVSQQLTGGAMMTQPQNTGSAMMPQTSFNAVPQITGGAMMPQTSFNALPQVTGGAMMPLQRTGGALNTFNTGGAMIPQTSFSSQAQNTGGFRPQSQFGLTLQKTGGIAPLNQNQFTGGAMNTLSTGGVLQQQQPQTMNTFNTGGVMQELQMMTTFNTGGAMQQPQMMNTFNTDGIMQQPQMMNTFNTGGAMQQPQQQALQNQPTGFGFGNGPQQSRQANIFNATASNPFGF
The description is as above.

For another test, the target named is T3, Rvs167 (S. cerevisiae, UniProt P39743 1-482).
T3 construct: Rvs167, amphiphysin-like protein, S. cerevisiae; also called Rvs167-1myeGFP; source: chromosomally tagged at the endogenous locus, in the cytoplasm of living S. cerevisiae cells; not shown: 1myeGFP, C-terminal, kept
The description is as above.

The next test concerns the target T4, Ste11-3mCherry (S. cerevisiae, UniProt P23561 1-717).
T4 construct: Ste11, S. cerevisiae; negative control of FCCS; source: S. cerevisiae strain Don1-eGFP, Ste11-3mCherry, in living cells
T4 sequence (looked up): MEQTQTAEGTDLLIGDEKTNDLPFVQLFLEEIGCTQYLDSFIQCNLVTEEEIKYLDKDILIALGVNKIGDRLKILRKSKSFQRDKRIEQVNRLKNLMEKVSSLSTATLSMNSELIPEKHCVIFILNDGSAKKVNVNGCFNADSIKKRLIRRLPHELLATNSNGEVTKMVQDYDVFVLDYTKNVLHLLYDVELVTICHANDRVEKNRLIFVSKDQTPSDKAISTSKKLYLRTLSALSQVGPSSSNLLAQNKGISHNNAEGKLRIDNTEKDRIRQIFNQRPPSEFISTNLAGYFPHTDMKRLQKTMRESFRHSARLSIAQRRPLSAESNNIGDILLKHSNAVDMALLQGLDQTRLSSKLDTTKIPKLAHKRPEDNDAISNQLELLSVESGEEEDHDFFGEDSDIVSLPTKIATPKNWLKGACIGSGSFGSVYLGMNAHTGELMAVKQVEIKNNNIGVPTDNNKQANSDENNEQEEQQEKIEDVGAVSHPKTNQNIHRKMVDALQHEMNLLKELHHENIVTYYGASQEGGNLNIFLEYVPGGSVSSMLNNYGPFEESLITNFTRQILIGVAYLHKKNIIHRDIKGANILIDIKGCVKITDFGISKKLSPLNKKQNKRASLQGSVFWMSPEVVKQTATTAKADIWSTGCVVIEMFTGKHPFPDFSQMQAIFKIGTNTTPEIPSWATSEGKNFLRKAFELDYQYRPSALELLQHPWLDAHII
The experiment in a line: fluorescence cross-correlation spectroscopy (FCCS); living yeast cells, observation volume in the cytoplasm; one protein tagged with (3)myeGFP/eGFP and the other with 3mCherry in the same strain; apparent (effective) KD; interactions up to ~1 μM detectable.

T3 sequence (P39743 whole entry): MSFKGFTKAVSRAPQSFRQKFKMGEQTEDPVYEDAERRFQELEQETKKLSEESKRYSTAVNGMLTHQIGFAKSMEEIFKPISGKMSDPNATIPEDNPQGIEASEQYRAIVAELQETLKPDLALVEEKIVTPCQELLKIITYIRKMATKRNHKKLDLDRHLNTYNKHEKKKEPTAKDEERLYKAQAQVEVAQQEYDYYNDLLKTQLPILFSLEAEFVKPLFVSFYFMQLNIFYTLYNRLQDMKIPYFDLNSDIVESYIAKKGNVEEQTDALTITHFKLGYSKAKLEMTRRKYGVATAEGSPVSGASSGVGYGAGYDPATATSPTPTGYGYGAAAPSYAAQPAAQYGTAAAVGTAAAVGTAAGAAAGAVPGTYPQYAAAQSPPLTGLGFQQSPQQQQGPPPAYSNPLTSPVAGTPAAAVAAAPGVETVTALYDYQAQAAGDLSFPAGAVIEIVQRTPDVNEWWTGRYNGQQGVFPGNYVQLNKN

B1: Bzz1 (natural protein, S. cerevisiae, UniProt P38822 1-633, looked up)
chain: MSADLSIGNEIKDSFKETHKWVQNNLKWLKDIEQFYRERAKLEKDYSERLSRLSAEYFNKKSSTSVPISVGDTPTTTPGSIEAAGVVAWNEILSQTDMISKDHDQLSTDFENHVANQLSGLFTKLDMTLSKINGFNNDMVNKKDNIYHELEKAKKDYDEACSTMEMARNRYTKASNDRNKKKLDEKEMEMNKCKNEYLIKINQANRTKDKYYFQDVPEVLDLLQDVNEAKTLFLNDLWLKAASVENDLGANVSKRLQAANSVVKQNKPSLNTAIFIKHNLKNWKEPQDFVYKPSPVWHDDEKFAVPSSLEVEDLRIKLAKAENDYNSLQDKTQNELSKLSTLNKIKHEMKTNEDNINATKFYDTLKEYLNVVSPFTSHETLKLQAEVQIESIQNNVPEEYDLSTDNIDLSKTKKKSGIFSKFKHNILNVDSKPSSGGSTGNGNGGPLHITSLFNTSRRTRLGSAPNNAGEDSDNNSIRTTSTNNTKKTTQNSSDDGKNKVLYAYVQKDDDEITITPGDKISLVARDTGSGWTKINNDTTGETGLVPTTYIRISSAATVKANDRGPAPEVPPPRRSTLPVRTMEAIYAYEAQGDDEISIDPGDIITVIRGDDGSGWTYGECDGLKGLFPTSYCK
notes: Bzz1, S. cerevisiae; also called Bzz1-3myeGFP; Bzz1-3mCherry; source: chromosomally tagged at the endogenous locus, in the cytoplasm of living S. cerevisiae cells
Regarding B1, the Kd came to 994 nM in the test with Bbc1 and 976 nM with Sla1.

B2: Rvs161 (natural protein, S. cerevisiae, UniProt P25343 1-265, looked up)
chain: MSWEGFKKAINRAGHSVIIKNVDKTIDKEYDMEERRYKVLQRAGEALQKEAKGFLDSLRAVTASQTTIAEVISNLYDDSKYVAGGGYNVGNYYLQCVQDFDSETVKQLDGPLRETVLDPITKFSTYFKEIEEAIKKRDHKKQDFDAAKAKVRRLVDKPAKDASKLPRAEKELSLAKDIFENLNNQLKTELPQLVSLRVPYFDPSFEALIKIQLRFCTDGYTRLAQIQQYLDQQSRDDYANGLLDTKIEELLGQMTSLDICALGIK
notes: Rvs161, amphiphysin-like protein, S. cerevisiae; also called Rvs161-1myeGFP; Rvs161-3mCherry; source: chromosomally tagged at the endogenous locus, in the cytoplasm of living S. cerevisiae cells
As for B2, the Kd with Rvs167 was determined as 6 nM.

B3: Don1-eGFP (natural protein, S. cerevisiae, UniProt Q05610 1-365, looked up)
chain: MGKKNRKGKENNAAKTSFLKVENIKNTNSGLELPSQDYTNVEEKESSPKTDFPLITKEHVNTKTDSNILDYPTIGDLVSSVEKLCVLKELKIAFPEVDDTLIKAILIASQGVLEPAFNSLLYYSSPEENTDFALPMKPISVEDYSKINVSEILQREIFDDIEDEFSGQGINGSMVISKIESELSSLAEHIGNISTPGSNREVAESTRNVAVAEGHNTILSNEDSILKGKEKGKEEEKEKGEEKGVNSLKGAAVKVVAKSLKNNRIPVTVKRNEPSNNLFDVLNCDESEEEEEQDVETNTSNQERKNQGGNTEVPEAQRDSADRLPAKDDGGYKSAFGTDSCGLFAADAKDEKKQVHPSRQELSFT
notes: Don1, S. cerevisiae; negative control of FCCS; source: S. cerevisiae strain Don1-eGFP, Ste11-3mCherry, in living cells
As to B3, the Kd with Ste11-3mCherry was greater than 1000 nM.
